Results as given in patent US7235648B1, “Yeast cells engineered to produce pheromone system protein surrogates, and uses therefor” (Cadus Technologies, Inc., priority 1993, dated 2007).

T1: induced HL60 cells (Homo sapiens, UniProt P21730)
T1 construct: endogenous in cells; host or cells: induced HL60 cells
T1 sequence (P21730 1-350): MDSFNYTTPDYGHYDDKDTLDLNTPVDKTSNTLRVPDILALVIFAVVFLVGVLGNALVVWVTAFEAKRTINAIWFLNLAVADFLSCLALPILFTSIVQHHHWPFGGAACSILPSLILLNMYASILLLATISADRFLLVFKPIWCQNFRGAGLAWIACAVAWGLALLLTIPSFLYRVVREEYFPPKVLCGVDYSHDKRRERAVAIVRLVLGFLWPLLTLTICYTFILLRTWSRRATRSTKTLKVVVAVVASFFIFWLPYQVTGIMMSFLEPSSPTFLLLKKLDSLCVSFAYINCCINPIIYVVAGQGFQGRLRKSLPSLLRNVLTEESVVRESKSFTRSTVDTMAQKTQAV

T2: C5a receptor (Homo sapiens, UniProt P21730)
T2 sequence (P21730 1-350): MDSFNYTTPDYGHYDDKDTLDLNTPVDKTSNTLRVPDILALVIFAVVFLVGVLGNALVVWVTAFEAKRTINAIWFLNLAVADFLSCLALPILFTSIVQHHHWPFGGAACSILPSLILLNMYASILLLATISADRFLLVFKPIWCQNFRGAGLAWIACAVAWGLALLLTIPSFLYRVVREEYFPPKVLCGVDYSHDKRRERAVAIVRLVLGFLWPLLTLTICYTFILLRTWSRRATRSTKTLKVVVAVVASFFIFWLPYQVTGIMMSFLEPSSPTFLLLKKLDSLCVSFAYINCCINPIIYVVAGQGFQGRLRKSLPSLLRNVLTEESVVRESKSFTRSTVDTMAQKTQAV

T3: yeast Gβγ (Saccharomyces cerevisiae, UniProt P18851+P18852)
T3 construct: Endogenous Gβγ subunits will be provided by the yeast STE4 and STE18 loci; endogenous in cells; host or cells: S. cerevisiae gpa1 tester strains
T3 sequence (P18851 1-423): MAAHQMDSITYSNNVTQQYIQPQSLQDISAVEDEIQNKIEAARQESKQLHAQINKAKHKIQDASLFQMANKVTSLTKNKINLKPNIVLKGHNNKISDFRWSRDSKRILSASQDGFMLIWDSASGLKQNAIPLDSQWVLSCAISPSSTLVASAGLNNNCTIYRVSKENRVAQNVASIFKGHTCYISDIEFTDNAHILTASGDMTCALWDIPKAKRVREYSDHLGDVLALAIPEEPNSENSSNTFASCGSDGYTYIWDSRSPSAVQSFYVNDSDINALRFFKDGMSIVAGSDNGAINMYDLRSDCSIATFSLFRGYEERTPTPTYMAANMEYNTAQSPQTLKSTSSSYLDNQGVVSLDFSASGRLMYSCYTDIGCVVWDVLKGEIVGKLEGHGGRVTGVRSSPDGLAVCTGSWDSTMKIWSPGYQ
T3 sequence (P18852 1-107 limits assumed): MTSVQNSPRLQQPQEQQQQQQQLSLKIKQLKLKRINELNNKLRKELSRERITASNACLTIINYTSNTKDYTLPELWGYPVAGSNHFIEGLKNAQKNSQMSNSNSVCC


Legend:
induced HL60 cells = biological target: T1, induced HL60 cells; experiment: Competition with radiolabeled C5a for binding on induced HL60 cells; conditions: C5a expressed in yeast
C5a receptor [1] = biological target: T2, C5a receptor; experiment: Autocrine yeast expressing human C5a receptor and human C5a, growth read-out (fus1-HIS3); format: cell-based; parameters: expressed in transfected cells; host or cells: S. cerevisiae CY455 / CY878 carrying GPA1(41)-Gαi2, plasmid Cadus 1303
Description: The strain used for this analysis, CY455 (MATαtbt1-1 ura3 leu2 trp1 his3 fus1-HIS3 can1 ste14::TRP1 ste3*1156), contains the following significant modifications. A pheromone inducible HIS3 gene, fus1-HIS3, is integrated at the FUS1 locus. A hybrid gene containing sequence encoding the first 41 amino acids of GPA1 (the yeast Gα subunit) fused to sequence encoding human Gαi2a (minus codons for the N-terminal 33 amino acids) replaces GPA1 at its normal chromosomal location. The yeast STE14 gene is disrupted to lower the basal level of signaling through the pheromone response pathway. The yeast a-factor receptor gene, STE3, is deleted. The last two modifications are probably not essential but appear to improve the signal-to-noise ratio. […]
Three colonies were picked from each transformation and grown overnight in media lacking leucine and uracil, at pH 6.8 with 25 mM PIPES (LEU^− URA^− pH6.8 with 25 mM PIPES). […] The optical density at 600 nm of a 1/20 dilution of these cultures was determined and the cultures were diluted into 25 mM PIPES pH 6.8 to a final OD600 of 0.2. […] For verification of pheromone pathway activation and quanti-fication of the stimulation, the activity of the fus1 promoter was determined colorometrically using a fus1-lacZ fusion in a similar set of strains. […]

C5a receptor [2] = biological target: T2, C5a receptor; parameters: host or cells: mammalian cells (not specified); conditions: mammalian cells; Boulay et al. 1991; read-out: binding constant of C5a to its receptor; cited from earlier work
yeast Gβγ = biological target: T3, yeast Gβγ; experiment: Coupling of Gα subunits and hybrids to yeast Gβγ: complementation of gpa1 growth arrest phenotype and fus1-HIS3 transcription; format: cell-based
Description: We have tested the hypothesis that there are switch region determinants involved in the association of Gα with Gβγ by constructing a series of hybrid Gα proteins encoding portions of GPA1 and GαS in different combinations (FIG. 11).
Preferably, levels of Gα and Gβγ subunits are balanced. For example, heterologous Gα subunits may be expressed from a low copy (CEN ARS) vector containing the endogenous yeast GPA1 promotor and the GPA1 3′ untranslated region. The minimum criterion, applied to a heterologous Gα subunit with respect to its ability to couple functionally to the yeast pheromone pathway, is that it complement a gpa1 genotype when expressed from the GPA1 promoter on low copy plasmids or from an integrated, single copy gene. In the work described in this application, all heterologous Gα subunits have been assayed in two biological systems.

C5a receptor [3] = biological target: T2, C5a receptor; experiment: Coupling of the C5a receptor to Gα chimeras in yeast; format: cell-based; parameters: expressed in transfected cells; host or cells: S. cerevisiae CY455 / CY878 carrying GPA1(41)-Gαi2, plasmid Cadus 1303; conditions: GPA1 promoter; single copy integrated or low copy plasmid
Method: Coupling by chimeric Gα_proteins._The Gα chimeras described above were tested for the ability to couple a mammalian G protein-coupled receptor to the pheromone response pathway in yeast. Results obtained using GPA141-Gαi2 to couple the human C5a receptor to the pheromone response pathway in autocrine strains of yeast are disclosed in Example 10 above.
With this phenomenon, there is an increase in growth on selective media for strains containing heterologous receptor in the absence of ligand. It is possible that some receptor antagonists would decrease LIRMA. It has been noted (Milano, et al. 1994) that specific antagonists reduce LIRMA of the β2 adrenergic receptor when that receptor is overexpressed in transgenic mice.

| Molecule | competition for binding with radiolabeled C5a (induced HL60 cells) | growth on selective plates lacking histidine (pheromone pathway activation via C5a receptor) (C5a receptor [1]; CY455 R+L+ strain, pH 6.8, 1 mM aminotriazole) | aminotriazole concentration on which the R+L+ strain will grow (C5a receptor [1]; CY455 R+L+, highest concentration tested) | Kd (C5a receptor [2]) | functional complementation of the growth arrest phenotype of gpa1 strains (yeast Gβγ) | Result (coupling of the C5a receptor to Gα chimeras in yeast) (C5a receptor [3]) |
| --- | --- | --- | --- | --- | --- | --- |
| C5a: 74 amino acid polypeptide that derives from the fifth component of complement; anaphylatoxin (protein) TLQKKIEEIAAKYKHSVVKKCCYDGACVNNDETCEQRAARISLGPRCIKAFTECCVVASQLRANISHKDMQLGR | compete for binding | show growth on the selective plates | up to 5 mM | 1 nM | – | – |
| GPA141-Gαi2: first 41 amino acids of GPA1 fused to human Gαi2 (protein) MGCTVSTQTIGDESDPFLQNKRANDVIEQSLQLEKQRDKNEVKLLLLGAGESGKSTIVKQMKIIHE | – | – | – | – | functionally complement | GPA141-Gαi2single copy, Good signal to noise ratio: |
